The values that follow come from paper PMC2982890 (Biochemistry, 2010).

B1: nuclear coactivator binding domain (NCBD) of CBP (residues 2059–2117) (domain or fragment, mouse, UniProt P45481 2059-2117, looked up)
chain: PPRSISPSALQDLLRTLKSPSSPQQQQQVLNILKSNPQLMAAFIKQRTAKYVANQPGMQ

The target of assay [1] is p53(1–61), full-length transactivation domain (TAD) of human p53 (human, UniProt P04637 1-61). Nature of the assay: ITC + NMR titration.
Assay [2] addresses B1. Nature of the assay: ITC + NMR titration.
Assay [3] concerns the target B1. Description: ITC. On the technique in general: In ITC the heat of successive injections is recorded.

With B1, the binding result in assay [1] is “binds”. As to LSQETFSDLWKLLPE (peptide, UniProt P04637 14-28, looked up) [p53(14–28), isolated AD1 peptide], the “fold weaker binding than p53(1–61)” value in assay [2] was about 170 fold. As a reminder, the Kd is a measure of binding affinity in units of concentration. A high value points to weaker binding. Take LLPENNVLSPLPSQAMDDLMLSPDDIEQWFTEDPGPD (domain or fragment, human, UniProt P04637 25-61, looked up) [p53(25–61)]: the “fold weaker binding than p53(1–61)” value in assay [2] lay in the range of 2 to 3 fold. Further, in assay [3], binding was characterised by a dissociation constant (Kd) of 5.4 ± 1.8 µM and the dH is -4.12 ± 0.46 kcal/mol.
